Test results reported in the supplement of paper PMC9732359.
± gives the uncertainty stated by the source.

Assay: protein stability index of a GFP-peptide fusion (yeast GPS) (PSI 1-4); higher = more stable; sorted into four equal gates, so the index is relative within each strain
Method in brief: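 Yeast carrying a pooled library were grown to mid-log phase in leucine-free medium. Each library plasmid expresses Cherry and has a tiled 17-residue yeast protein peptide fused downstream of GFP. Cells were sorted into four equal gates by GFP/Cherry ratio, and plasmids from each gate were PCR-amplified, Illumina-sequenced and assigned to strains by barcode. Summing, across gates, the read frequency times the gate number gave each peptide's protein stability index.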

**Q.** With VHPRKSYKMNSSAADIT [PRP8] as the sequence, how does the protein stability index (doa10∆) read?
**A.** The protein stability index was 2.77 ± 0.079.

**Q.** What about the protein stability index (pdr5∆) of the same sequence?
**A.** The protein stability index was 2.88 ± 0.075.

**Q.** What about the protein stability index (san1∆) of the same sequence?
**A.** The protein stability index was 2.88 ± 0.053.

**Q.** And the protein stability index (ubr1∆)?
**A.** Its protein stability index is 2.74 ± 0.058.

**Q.** With VHVIHFQHADNSSMRYG [AAR2] as the sequence, how does the protein stability index (doa10∆) read?
**A.** Its protein stability index is 2.73 ± 0.081.

**Q.** What about the protein stability index (pdr5∆) of the same sequence?
**A.** Its protein stability index is 2.7 ± 0.073.

**Q.** And the protein stability index (san1∆)?
**A.** The protein stability index was 2.32 ± 0.11.

**Q.** What about the protein stability index (ubr1∆) of the same sequence?
**A.** Its protein stability index is 2.53 ± 0.055.

**Q.** With VIDTLAAGYGKILGKGR [RPL28] as the sequence, how does the protein stability index (doa10∆) read?
**A.** The protein stability index was 3.09 ± 0.12.

**Q.** What about the protein stability index (pdr5∆) of the same sequence?
**A.** The protein stability index was 2.63 ± 0.085.

**Q.** And the protein stability index (san1∆)?
**A.** The protein stability index was 3.11 ± 0.17.

**Q.** And the protein stability index (ubr1∆)?
**A.** Its protein stability index is 3.52 ± 0.14.

**Q.** What does the source list for VIEEDYDDEQNTSAQHV [IRR1]?
**A.** protein stability index (doa10∆): 3.5 ± 0.097; protein stability index (pdr5∆): 2.95 ± 0.12; protein stability index (san1∆): 3.12 ± 0.08; protein stability index (ubr1∆): 3.52 ± 0.19

**Q.** For VIFDASIKDTQNVGQGK [BRN1], which protein stability index (doa10∆) is on record?
**A.** The protein stability index was 2.15 ± 0.14.

**Q.** And the protein stability index (pdr5∆)?
**A.** Its protein stability index is 2.45 ± 0.12.

**Q.** What about the protein stability index (san1∆) of the same sequence?
**A.** The protein stability index was 2.61 ± 0.13.

**Q.** And the protein stability index (ubr1∆)?
**A.** Its protein stability index is 3.01 ± 0.096.

**Q.** Which protein stability index (doa10∆) does the source give for VIIKGFKTYRNETIIDN [SMC3] here?
**A.** The protein stability index was 2.58 ± 0.22.

**Q.** And the protein stability index (pdr5∆)?
**A.** Its protein stability index is 2.63 ± 0.27.

**Q.** And the protein stability index (san1∆)?
**A.** Its protein stability index is 2.94 ± 0.17.

**Q.** With VIKLAKYPDYFPEWKKS [ARP9] as the sequence, how does the protein stability index (doa10∆) read?
**A.** The protein stability index was 3 ± 0.098.

**Q.** And the protein stability index (pdr5∆)?
**A.** The protein stability index was 2.94 ± 0.091.

**Q.** And the protein stability index (san1∆)?
**A.** Its protein stability index is 2.82 ± 0.064.

**Q.** What about the protein stability index (ubr1∆) of the same sequence?
**A.** Its protein stability index is 3.27 ± 0.13.

**Q.** With VIPSYSKWFNLEKIHSI [SWI3] as the sequence, how does the protein stability index (doa10∆) read?
**A.** Its protein stability index is 1.69 ± 0.045.

**Q.** What about the protein stability index (pdr5∆) of the same sequence?
**A.** Its protein stability index is 1.6 ± 0.049.

**Q.** And the protein stability index (san1∆)?
**A.** The protein stability index was 1.44 ± 0.075.

**Q.** What about the protein stability index (ubr1∆) of the same sequence?
**A.** Its protein stability index is 1.89 ± 0.038.

**Q.** With VISFGQPKLNPMASSSS [SWI1] as the sequence, how does the protein stability index (doa10∆) read?
**A.** The protein stability index was 2.15 ± 0.06.

**Q.** What about the protein stability index (pdr5∆) of the same sequence?
**A.** Its protein stability index is 1.92 ± 0.074.

**Q.** What about the protein stability index (san1∆) of the same sequence?
**A.** The protein stability index was 2.61 ± 0.11.

**Q.** What about the protein stability index (ubr1∆) of the same sequence?
**A.** Its protein stability index is 2.13 ± 0.056.

**Q.** With VISIVGGHSLEEISFSL [PRP28] as the sequence, how does the protein stability index (doa10∆) read?
**A.** The protein stability index was 2.82 ± 0.13.

**Q.** And the protein stability index (pdr5∆)?
**A.** Its protein stability index is 2.73 ± 0.13.

**Q.** And the protein stability index (san1∆)?
**A.** The protein stability index was 3.19 ± 0.091.

**Q.** What about the protein stability index (ubr1∆) of the same sequence?
**A.** Its protein stability index is 3.18 ± 0.13.

**Q.** Which results are given for VISNLVPKLESSRTKFW [YJL039C/NUP192]?
**A.** protein stability index (doa10∆): 2.36 ± 0.26; protein stability index (pdr5∆): 2.6 ± 0.13; protein stability index (san1∆): 2.48 ± 0.28; protein stability index (ubr1∆): 2.69 ± 0.2

**Q.** Which protein stability index (doa10∆) does the source give for VIVPQIVLDEVRNKSYP [DIS3] here?
**A.** The protein stability index was 2.68 ± 0.066.

**Q.** What about the protein stability index (pdr5∆) of the same sequence?
**A.** Its protein stability index is 2.33 ± 0.089.

**Q.** What about the protein stability index (san1∆) of the same sequence?
**A.** Its protein stability index is 2.79 ± 0.11.

**Q.** And the protein stability index (ubr1∆)?
**A.** Its protein stability index is 1.46 ± 0.04.

**Q.** With VKAILMQRHVKVDGKVR [RPS4A] as the sequence, how does the protein stability index (doa10∆) read?
**A.** Its protein stability index is 3.13 ± 0.15.

**Q.** What about the protein stability index (pdr5∆) of the same sequence?
**A.** The protein stability index was 3.09 ± 0.11.

**Q.** What about the protein stability index (san1∆) of the same sequence?
**A.** The protein stability index was 3.55 ± 0.2.

**Q.** And the protein stability index (ubr1∆)?
**A.** Its protein stability index is 2.9 ± 0.086.

**Q.** With VKESNNYYSNKSNSTGN [REC8] as the sequence, how does the protein stability index (doa10∆) read?
**A.** Its protein stability index is 2.44 ± 0.067.

**Q.** And the protein stability index (pdr5∆)?
**A.** The protein stability index was 2.71 ± 0.085.

**Q.** And the protein stability index (san1∆)?
**A.** Its protein stability index is 2.56 ± 0.07.

**Q.** And the protein stability index (ubr1∆)?
**A.** The protein stability index was 2.97 ± 0.046.

**Q.** With VKEYQLRDRNFSATGNF [RPL11A] as the sequence, how does the protein stability index (doa10∆) read?
**A.** Its protein stability index is 3.29 ± 0.097.

**Q.** And the protein stability index (pdr5∆)?
**A.** Its protein stability index is 3.27 ± 0.1.

**Q.** And the protein stability index (san1∆)?
**A.** The protein stability index was 2.85 ± 0.28.

**Q.** What about the protein stability index (ubr1∆) of the same sequence?
**A.** The protein stability index was 3.22 ± 0.089.

**Q.** Which protein stability index (doa10∆) does the source give for VKIMRDPAKSRTGPKAL [RPS3] here?
**A.** Its protein stability index is 3.35 ± 0.21.

**Q.** And the protein stability index (pdr5∆)?
**A.** Its protein stability index is 3.33 ± 0.12.

**Q.** And the protein stability index (san1∆)?
**A.** Its protein stability index is 3.06 ± 0.1.

**Q.** What about the protein stability index (ubr1∆) of the same sequence?
**A.** The protein stability index was 3.52 ± 0.11.

**Q.** For VKKPTFTFGQSTSENKI [YOR098C/NUP1], which protein stability index (doa10∆) is on record?
**A.** The protein stability index was 3.02 ± 0.21.

**Q.** And the protein stability index (pdr5∆)?
**A.** The protein stability index was 2.87 ± 0.21.

**Q.** What about the protein stability index (san1∆) of the same sequence?
**A.** Its protein stability index is 3.14 ± 0.2.

**Q.** And the protein stability index (ubr1∆)?
**A.** Its protein stability index is 3.45 ± 0.14.

**Q.** What does the source list for VKLWEEDPDQEECSGRR [YGL100W/SEH1]?
**A.** protein stability index (doa10∆): 3.18 ± 0.084; protein stability index (pdr5∆): 3.08 ± 0.081; protein stability index (san1∆): 3.37 ± 0.04; protein stability index (ubr1∆): 3.37 ± 0.055

**Q.** Which results are given for VKSKIQDKEGIPPDQQR [RPS31]?
**A.** protein stability index (doa10∆): 3.08 ± 0.076; protein stability index (pdr5∆): 3.48 ± 0.075; protein stability index (san1∆): 3.41 ± 0.051; protein stability index (ubr1∆): 3.44 ± 0.061

**Q.** For VKTTLVSLTQLRCVKYL [RPC82], which protein stability index (doa10∆) is on record?
**A.** The protein stability index was 1.4 ± 0.13.

**Q.** And the protein stability index (pdr5∆)?
**A.** The protein stability index was 1.27 ± 0.079.

**Q.** What about the protein stability index (san1∆) of the same sequence?
**A.** Its protein stability index is 1.16 ± 0.25.

**Q.** What about the protein stability index (ubr1∆) of the same sequence?
**A.** Its protein stability index is 1.37 ± 0.11.

**Q.** Which protein stability index (doa10∆) does the source give for VKVHMDSETSDPNEVEI [DIS3] here?
**A.** Its protein stability index is 3.29 ± 0.089.

**Q.** What about the protein stability index (pdr5∆) of the same sequence?
**A.** Its protein stability index is 3.5 ± 0.086.

**Q.** And the protein stability index (san1∆)?
**A.** The protein stability index was 3.5 ± 0.077.

**Q.** And the protein stability index (ubr1∆)?
**A.** The protein stability index was 3.52 ± 0.088.

**Q.** Which protein stability index (pdr5∆) does the source give for VKVVDAGNKVGQSEASL [RPP0] here?
**A.** The protein stability index was 3.58 ± 0.22.

**Q.** For VLDSYTPSTNEPYARVS [FAS1], which protein stability index (doa10∆) is on record?
**A.** The protein stability index was 2.94 ± 0.054.

**Q.** And the protein stability index (pdr5∆)?
**A.** Its protein stability index is 2.76 ± 0.053.

**Q.** And the protein stability index (san1∆)?
**A.** The protein stability index was 2.71 ± 0.066.

**Q.** And the protein stability index (ubr1∆)?
**A.** The protein stability index was 3.01 ± 0.044.

**Q.** With VLEYLAAEILELAGNAA [HTA1] as the sequence, how does the protein stability index (doa10∆) read?
**A.** The protein stability index was 2.85 ± 0.1.

**Q.** And the protein stability index (pdr5∆)?
**A.** Its protein stability index is 2.44 ± 0.1.

**Q.** What about the protein stability index (san1∆) of the same sequence?
**A.** Its protein stability index is 2.54 ± 0.081.

**Q.** What about the protein stability index (ubr1∆) of the same sequence?
**A.** The protein stability index was 2.84 ± 0.1.

**Q.** Which protein stability index (doa10∆) does the source give for VLISKLSCEKITHYAVR [RRI1] here?
**A.** Its protein stability index is 1.45 ± 0.046.

**Q.** What about the protein stability index (pdr5∆) of the same sequence?
**A.** The protein stability index was 1.64 ± 0.051.

**Q.** What about the protein stability index (san1∆) of the same sequence?
**A.** Its protein stability index is 1.66 ± 0.07.

**Q.** What about the protein stability index (ubr1∆) of the same sequence?
**A.** The protein stability index was 1.67 ± 0.039.

**Q.** With VLKACGILSDLEIMQLV [RET1] as the sequence, how does the protein stability index (doa10∆) read?
**A.** Its protein stability index is 1.56 ± 0.11.

**Q.** And the protein stability index (san1∆)?
**A.** The protein stability index was 1.46 ± 0.22.

**Q.** And the protein stability index (ubr1∆)?
**A.** The protein stability index was 2.56 ± 0.082.

**Q.** With VLKEKDVPAYNVTSFMP [SRB8] as the sequence, how does the protein stability index (doa10∆) read?
**A.** Its protein stability index is 3.11 ± 0.064.

**Q.** What about the protein stability index (pdr5∆) of the same sequence?
**A.** Its protein stability index is 3.01 ± 0.051.

**Q.** And the protein stability index (san1∆)?
**A.** The protein stability index was 3.03 ± 0.051.

**Q.** And the protein stability index (ubr1∆)?
**A.** The protein stability index was 3 ± 0.037.

**Q.** With VLKKPNRAMEYDALLSI [RET1] as the sequence, how does the protein stability index (pdr5∆) read?
**A.** Its protein stability index is 2.33 ± 0.19.

**Q.** And the protein stability index (san1∆)?
**A.** Its protein stability index is 1.69 ± 0.28.
